Assay results as given in the supplement of paper PMC9233669.
This sample holds only a part of the variants without activity.

What was measured:
biotinyl-Met-oxazolone = assay: self-aminoacylation, catalytic enhancement (BMO) (fold over background); higher = more active; k-Seq, kA / k0A0; sequences stand for … in GGGAAUGGAUCCACAUCUACGAAUUC…UUCACUGCAGACUUGACGAAGCUG
Procedure, shortened: (§1)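 Working in 50 μL HEPES/NaCl/KCl/MgCl2/CaCl2 buffer with 5% acetonitrile at pH 6.9–7.0, mutagenized RNA pools (0.43 μM; 21-nt variable region) were reacted with 2–1250 μM of each biotinyl-aminoacyl-oxazolone for 90 minutes at room temperature. Streptavidin capture followed, with quantification by triplicate qPCR and Illumina sequencing. Catalytic enhancement is reported as median kA over the uncatalyzed rate, the low-activity peak of a bimodal Gaussian fit to the data.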

biotinyl-Trp-oxazolone = assay: self-aminoacylation, catalytic enhancement (BWO) (fold over background); higher = more active; k-Seq, kA / k0A0; sequences stand for … in GGGAAUGGAUCCACAUCUACGAAUUC…UUCACUGCAGACUUGACGAAGCUG
Procedure, shortened: as §1

biotinyl-Leu-oxazolone = assay: self-aminoacylation, catalytic enhancement (BLO) (fold over background); higher = more active; k-Seq, kA / k0A0; sequences stand for … in GGGAAUGGAUCCACAUCUACGAAUUC…UUCACUGCAGACUUGACGAAGCUG
Procedure, shortened: as §1

biotinyl-Val-oxazolone = assay: self-aminoacylation, catalytic enhancement (BVO) (fold over background); higher = more active; k-Seq, kA / k0A0; sequences stand for … in GGGAAUGGAUCCACAUCUACGAAUUC…UUCACUGCAGACUUGACGAAGCUG
Procedure, shortened: as §1

biotinyl-Ile-oxazolone = assay: self-aminoacylation, catalytic enhancement (BIO) (fold over background); higher = more active; k-Seq, kA / k0A0; sequences stand for … in GGGAAUGGAUCCACAUCUACGAAUUC…UUCACUGCAGACUUGACGAAGCUG
Procedure, shortened: as §1

biotinyl-Phe-oxazolone = assay: self-aminoacylation, catalytic enhancement (BFO) (fold over background); higher = more active; k-Seq, kA / k0A0; sequences stand for … in GGGAAUGGAUCCACAUCUACGAAUUC…UUCACUGCAGACUUGACGAAGCUG
Procedure, shortened: as §1

Sequence | self-aminoacylation (biotinyl-Met-oxazolone) | self-aminoacylation (biotinyl-Trp-oxazolone) | self-aminoacylation (biotinyl-Leu-oxazolone) | self-aminoacylation (biotinyl-Val-oxazolone) | self-aminoacylation (biotinyl-Ile-oxazolone) | self-aminoacylation (biotinyl-Phe-oxazolone)
AAGUUUGCUAAUAGUCGGUAG [Fam3.1 aminoacylation ribozyme variant] | 0.878 | 0.993 | 1.03 | 0.771 | 0.974 | 1.66
CCACCCUUCAAGCAAUCGUUC [Fam1B.1 aminoacylation ribozyme variant] | 0.584 | 0.742 | 0.611 | 0.89 | 0.888 | 0.85
AUUACCCUGGUCAUCGAGUGC [Fam2.1 aminoacylation ribozyme variant] | 11.4 | 8.98 | 10.9 | 4.71 | 3.92 | 24.9
CCACUUCAAACAAUCGGUCAG [Fam1A.1 aminoacylation ribozyme variant] | 0.992 | 9.79 | 1.03 | 1.04 | 1.01 | 13.7
AUUGACCUAGGUCAGCGGGUG [Fam2.2 aminoacylation ribozyme variant] | 2.59 | 3.29 | 3.01 | 2.86 | 2.61 | 12.5
AUUCACCUAGGUCCUCGGGCG [Fam2.2 aminoacylation ribozyme variant] | 4.65 | 3.17 | 4.27 | 2.7 | 3.37 | 35.3
AUUACCCUGGUCAUCGAGUUU [Fam2.1 aminoacylation ribozyme variant] | 7.8 | 6.31 | 7.87 | 4.61 | 3.52 | 14.8
AUUAUCCUGGUCAUCAAGUGA [Fam2.1 aminoacylation ribozyme variant] | 3.84 | 4.39 | 3.5 | 2.2 | 2.3 | 10.1
CUACUGCAAACAAUCGGUCUC [Fam1A.1 aminoacylation ribozyme variant] | 0.916 | 0.681 | 0.716 | 0.885 | 0.855 | 0.785
AUUCAGCUAGGCCAUCGGGUG [Fam2.2 aminoacylation ribozyme variant] | 10.1 | 10.1 | 12.4 | 6.97 | 6.95 | 72.1
CCACACUUCAAGCCAUCGGGC [Fam1B.1 aminoacylation ribozyme variant] | 1.85 | 2.1 | 4.06 | 3.22 | 2.49 | 1.42
GUUCACCUAGGUCAUCGGGUA [Fam2.2 aminoacylation ribozyme variant] | 50.6 | 33.1 | 68.3 | 22.6 | 24.6 | 381
AUUCACCCAGGUCAUCGGGCG [Fam2.2 aminoacylation ribozyme variant] | 3.77 | 2.97 | 4.5 | 2.62 | 2.72 | 18
AUUCAGCUAGGUCAUCGGGUA [Fam2.2 aminoacylation ribozyme variant] | 3.6 | 2.76 | 3.67 | 3.3 | 3.18 | 29.7
AGUACCCUGGUCAUCGAGGGA [Fam2.1 aminoacylation ribozyme variant] | 1.22 | 2.91 | 2.21 | 1.47 | 1.43 | 1.82
CCACACUUAAAGCAUUCGGUC [Fam1B.1 aminoacylation ribozyme variant] | 1.17 | 1.15 | 1.29 | 1.58 | 1.63 | 1.03
AUCACCCUCGUCAUCGAGUGA [Fam2.1 aminoacylation ribozyme variant] | 3.54 | 3.31 | 3.13 | 2.36 | 2.12 | 19.7
CUACUUCAAACAAUCGGCCAG [Fam1A.1 aminoacylation ribozyme variant] | 1.02 | 0.954 | 1.19 | 1.36 | 1.44 | 1.84
AUUACCCUGGGCAUCAAGUGA [Fam2.1 aminoacylation ribozyme variant] | 1.76 | 1.64 | 1.73 | 1.37 | 1.16 | 2.16
AUUCGCCUAGGUCAUCGGGUG [Fam2.2 aminoacylation ribozyme variant] | 45.8 | 37.3 | 63.8 | 23.1 | 26.2 | 364
AUUCACUUUGGUCAUCGGGUG [Fam2.2 aminoacylation ribozyme variant] | 8.05 | 7.2 | 9.51 | 4.71 | 4.75 | 65.4
AUUCACCUAGGUCAACGGUUG [Fam2.2 aminoacylation ribozyme variant] | 0.808 | 0.94 | 0.71 | 0.808 | 0.852 | 1.03

Sequence | self-aminoacylation (biotinyl-Met-oxazolone) | self-aminoacylation (biotinyl-Trp-oxazolone) | self-aminoacylation (biotinyl-Leu-oxazolone) | self-aminoacylation (biotinyl-Val-oxazolone) | self-aminoacylation (biotinyl-Ile-oxazolone) | self-aminoacylation (biotinyl-Phe-oxazolone)
AAGUUUGAUAAUAGUCGCAAA [Fam3.1 aminoacylation ribozyme variant] | 1.08 | 1.04 | 0.997 | 0.975 | 1.18 | 1.22
AUUACCCUGGUUAUCGAGUGA [Fam2.1 aminoacylation ribozyme variant] | 8.65 | 10.3 | 8.64 | 4.27 | 3.83 | 25.2
AUUCACCUAGGUCAUAGGUUG [Fam2.2 aminoacylation ribozyme variant] | 0.846 | 0.441 | 0.9 | 0.77 | 0.63 | 0.595
CCACUUUUCAAGCAAUCGGUC [Fam1B.1 aminoacylation ribozyme variant] | 1.1 | 1.06 | 1.1 | 1.32 | 1.25 | 1.58
CAGCACUUCAAGCAAUCGGUC [Fam1B.1 aminoacylation ribozyme variant] | 1.79 | 22.1 | 2.33 | 1.55 | 1.67 | 34.4
CUACUCCAAACAAUCGGGCUG [Fam1A.1 aminoacylation ribozyme variant] | 1.61 | 1.14 | 1.29 | 1.01 | 1.36 | 1.02
AAGUGUGCUAAUAGUCUCAAG [Fam3.1 aminoacylation ribozyme variant] | 1.4 | 2.73 | 1.44 | 1.62 | 1.26 | 8.7
AUUACCCAGGUCGUCGAGUGA [Fam2.1 aminoacylation ribozyme variant] | 0.786 | 0.416 | 0.669 | 0.951 | 0.849 | 0.686
AUUCAGCUUGGUCAUCGGGUG [Fam2.2 aminoacylation ribozyme variant] | 3.5 | 4.05 | 3.63 | 3.37 | 2.75 | 14
AUGUUUGCUAAUAGUCGCGAG [Fam3.1 aminoacylation ribozyme variant] | 1.57 | 2.18 | 1.48 | 1.65 | 1.65 | 3.75
AAUACACUGGUCAUCGAGUGA [Fam2.1 aminoacylation ribozyme variant] | 4.13 | 6.47 | 4.56 | 3.4 | 3.65 | 8.92
AGGCACCUAGGUCAUCGGGUG [Fam2.2 aminoacylation ribozyme variant] | 3.14 | 4.1 | 3.18 | 3.73 | 2.94 | 17
AAGUUUGCUAAAAGUCGCAAA [Fam3.1 aminoacylation ribozyme variant] | 1.87 | 1.32 | 1.67 | 1.59 | 1.7 | 1.91
AUGUUUGCCAAUAGUCGCAAG [Fam3.1 aminoacylation ribozyme variant] | 1.64 | 1.15 | 1.14 | 1.33 | 1.53 | 1.82
CCACAUUUCAAGCAAUCGGGC [Fam1B.1 aminoacylation ribozyme variant] | 3.55 | 2.91 | 2.78 | 2.7 | 3.08 | 1.7
CUACUUCAAACUAUCGGUCUA [Fam1A.1 aminoacylation ribozyme variant] | 0.729 | 0.62 | 0.696 | 0.912 | 0.944 | 1.08
AUUGCCCUGGUCCUCGAGUGA [Fam2.1 aminoacylation ribozyme variant] | 3.5 | 3.66 | 3.42 | 2.05 | 1.94 | 23.4
AUUCACCUAGGUCAUGAGGUG [Fam2.2 aminoacylation ribozyme variant] | 2.41 | 1.75 | 3.15 | 1.81 | 1.94 | 3.32
CCUCACUUCAAGCAAUCUGUC [Fam1B.1 aminoacylation ribozyme variant] | 0.343 | 0.563 | 0.313 | 0.515 | 0.458 | 1.03
AUUACCCUGGUCAACGAGUGA [Fam2.1 aminoacylation ribozyme variant] | 6.11 | 7.31 | 5.99 | 3.6 | 3.43 | 22.4
AUUCACCUAGGGCAUCGGGUU [Fam2.2 aminoacylation ribozyme variant] | 2.08 | 2.78 | 2.37 | 2.01 | 1.91 | 5.04
